For one assay, the system named is ERCoA3. The assay is described as follows: Northern hybridization for ERCoA3 expression in MCF-7 cells. The assay is classed as cell-based, human. Particulars: 10^-8 M, 24 h. On the procedure:
FIG. 8. ERCoA3 is expressed in cells that respond to tamoxifen as an agonist. (A) Total RNA was isolated from untreated parental MCF-7 cells (−), and cells treated for 24 h with 10^−8 M estradiol (E2) or 10^−8 M trans-hydroxytamoxifen (TOT), and tamoxifen resistant cells (TOT^R). (B) Total RNA was collected from untreated Hec cells and cells treated for 24 h with 10^−8 M estradiol (E2) or 10^−8 M trans-hydroxytamoxifen. Equal amounts (20 μg) of total RNA were separated by electrophoresis. Blots were probed with the random primer labeled ERCoA3 cDNA and 36B4 cDNA (to control for RNA loading).
It was determined whether there was increased expression of ERCoA3 in cells that were resistant to SERMs, specifically TOT. RNA was isolated from MCF-7 cells and also from tamoxifen-resistant (TOT^R) MCF-7 cells. Northern hybridization was performed using an ERCoA3 probe. These experiments indicated increased expression of ERCoA3 in TOT^R MCF-7 cells when compared to parental MCF-7 cells (FIG. 8A). […] Expression of ERCoA3 was also examined in another human cell line, human endometrium cancer cell line, HEC-1B.

For assay [1], the target named is T1, Progesterone Receptor β (PRβ) (Homo sapiens, UniProt P06401).
T1 sequence (P06401 1-933): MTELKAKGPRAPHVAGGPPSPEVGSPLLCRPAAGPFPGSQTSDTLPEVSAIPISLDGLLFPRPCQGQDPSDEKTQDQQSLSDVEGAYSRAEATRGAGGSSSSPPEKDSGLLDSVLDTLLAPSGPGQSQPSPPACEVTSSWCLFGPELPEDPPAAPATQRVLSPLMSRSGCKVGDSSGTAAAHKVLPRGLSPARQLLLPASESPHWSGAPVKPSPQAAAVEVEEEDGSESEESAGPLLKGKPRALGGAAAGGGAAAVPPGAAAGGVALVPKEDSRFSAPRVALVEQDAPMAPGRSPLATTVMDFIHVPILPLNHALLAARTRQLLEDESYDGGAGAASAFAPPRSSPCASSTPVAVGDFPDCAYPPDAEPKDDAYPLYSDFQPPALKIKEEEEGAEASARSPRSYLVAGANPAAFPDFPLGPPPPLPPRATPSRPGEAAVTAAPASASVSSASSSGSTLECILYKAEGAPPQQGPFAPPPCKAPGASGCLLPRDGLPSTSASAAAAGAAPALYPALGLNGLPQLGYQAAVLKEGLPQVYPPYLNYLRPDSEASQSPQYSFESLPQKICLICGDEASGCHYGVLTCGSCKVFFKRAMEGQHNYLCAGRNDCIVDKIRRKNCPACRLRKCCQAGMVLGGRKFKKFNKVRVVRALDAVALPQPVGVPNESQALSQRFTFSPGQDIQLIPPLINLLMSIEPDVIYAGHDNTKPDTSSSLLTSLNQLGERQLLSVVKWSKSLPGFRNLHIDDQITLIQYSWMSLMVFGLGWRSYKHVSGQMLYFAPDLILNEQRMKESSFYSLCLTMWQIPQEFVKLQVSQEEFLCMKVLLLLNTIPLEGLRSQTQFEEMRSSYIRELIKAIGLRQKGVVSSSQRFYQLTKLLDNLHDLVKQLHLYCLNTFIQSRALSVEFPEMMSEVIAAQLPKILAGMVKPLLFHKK
Put plainly: GST-ERCoA3 protein-protein interaction (pull-down) assay with [35S]-PRβ. The assay is classed as binding. Particulars: vehicle, 10^-6 M R5020 or RU-486. On the procedure: (§1) FIG. 4. ERCoA3 preferentially interacts with antagonist-bound ERα and PRβ. In vitro translated and [^35S]-methionine-labeled (A) Estrogen Receptor α (ERα) or (B) Progesterone Receptor β (PRβ) were incubated with GST alone or GST-ERCoA3 bound to Sepharose in the presence of vehicle, 10^−6 M Estradiol (E2), 10^−6 M trans-hydroxytamoxifen (TOT), 10^−6 M ICI 182,780 (ICI), 10^−6 M R5020, or 10^−6 M RU-486 as indicated. Bound protein was eluted with excess glutathione and analyzed by 12.5% SDS-polyacrylamide gel electrophoresis. The autoradiograph is representative of 3 separate experiments. Abbreviations: E2, 17-β estradiol; TOT, transhydroxytamoxifen; ICI, ICI182,780 (a pure ER antagonist); R5020, a synthetic PR agonist, and RU-486, a partial agonist of PRβ.
(§2) Somewhat different findings were made with Progesterone Receptor β (PRβ).

The target of assay [2] is T1, Progesterone Receptor β (PRβ). Put plainly: MMTV-CAT reporter assay in CHO cells transfected with PRβ. The settings on record: CHO cells cotransfected with ERCoA3 vs cmv5 control; unliganded, 10^-8 M R5020 or RU-486, 24 h. Details: expressed in transfected cells; host or cells: CHO cells. The assay is classed as cell-based. As for the experimental part: FIG. 7. ERCoA3 enhances partial agonist activity of RU-486. CHO cells were transfected with expression vectors for Progesterone Receptor β (PRβ) or reporter construct MMTV-CAT. The cells were cotransfected with cmv5 control expression vector or expression vector for ERCoA3 as indicated. The cells were also transfected with a β-galactosidase internal control reporter to correct for transfection efficiency. Cells were then treated for 24 h with 10^−8 M R5020 or RU-486. Values are the means ±S.E. from three separate experiments.
as §2

Assay [3] relates to ERα transcriptional activity. Put plainly: (ERE)2-PS2-CAT reporter assay in MCF-7 cells. Particulars: MCF-7 cells cotransfected with ERCoA3 vs cmv5 control; 10^-8 M E2 plus increasing TOT or ICI, 24 h. The assay is classed as cell-based, human. As for the experimental part:
FIG. 6. ERCoA3 attenuates the antiestrogenic effects of TOT and ICI on ERα transcriptional activity. MCF-7 cells were transfected with (ERE)2-PS2-CAT reporter construct. The cells were cotransfected with cmv5 control expression vector or expression vector for ERCoA3, as indicated. The cells were also transfected with a β-galactosidase internal control reporter to correct for transfection efficiency. Cells were then treated for 24 h with 10^−8 M estradiol (E2) and increasing concentration of trans-hydroxytamoxifen (TOT; panel A) or ICI 182,780 (ICI; panel B). Values are the means ±S.E. from three separate experiments.
Another very similar study examined the effect of ERCoA3 on the ability of TOT (FIG. 6A) and ICI (FIG. 6B) to block activation of ER. MCF-7 cells were transfected with a CAT reporter construct wherein transcription of the CAT gene was regulated by a estrogen-responsive element, or with both a CAT reporter construct and an expression vector for ERCoA3. The cells were then grown in TOT or ICI and CAT activity was assayed.

Assay [4] addresses T2, estrogen receptor α (ERα) (Homo sapiens, UniProt P03372).
T2 construct: made in house
T2 sequence (P03372 1-595): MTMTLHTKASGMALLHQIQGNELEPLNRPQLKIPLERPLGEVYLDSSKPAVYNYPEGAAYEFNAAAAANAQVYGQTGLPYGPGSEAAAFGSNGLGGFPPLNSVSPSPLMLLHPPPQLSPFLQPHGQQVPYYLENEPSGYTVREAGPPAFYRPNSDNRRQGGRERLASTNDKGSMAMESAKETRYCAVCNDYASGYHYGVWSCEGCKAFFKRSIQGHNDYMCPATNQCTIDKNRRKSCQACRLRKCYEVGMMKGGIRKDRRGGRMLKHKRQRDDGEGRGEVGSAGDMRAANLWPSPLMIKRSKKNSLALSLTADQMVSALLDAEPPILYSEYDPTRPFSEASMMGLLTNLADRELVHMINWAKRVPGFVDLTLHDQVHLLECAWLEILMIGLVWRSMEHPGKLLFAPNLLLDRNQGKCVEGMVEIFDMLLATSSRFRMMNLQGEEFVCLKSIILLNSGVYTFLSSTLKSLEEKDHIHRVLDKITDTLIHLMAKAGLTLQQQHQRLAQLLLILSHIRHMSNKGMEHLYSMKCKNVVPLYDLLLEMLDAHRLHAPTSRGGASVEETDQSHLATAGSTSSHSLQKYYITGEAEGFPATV
The assay is described as follows: GST-ERCoA3 protein-protein interaction (pull-down) assay with [35S]-ERα. The settings on record: vehicle, 10^-6 M E2, TOT or ICI. Format: binding. As for the experimental part:
as §1
A protein-protein interaction assay was used in which the affinity matrix (i.e., bound to a column) was a glutathione-S-transferase (GST) fusion protein wherein GST was fused to ERCoA3. In vitro transcribed and translated [^35S]-ERα was retained by the GST-ERCoA3 affinity column preferentially in the presence of antiestrogens, trans-hydroxytamoxifen (TOT) and ICI182,780 (ICI) when compared to estradiol (E2) (FIG. 4A). ERα was not retained on the GST protein column without ERCoA3 (or GST alone).

A further assay concerns ERα. Put plainly: (ERE)2-TATA-CAT reporter assay in CHO cells transfected with ERα. Format: cell-based. The settings on record: CHO cells cotransfected with ERCoA3 expression vector vs cmv5 control; estrogen, TOT or ICI, 24 h. As for the experimental part: FIG. 5. ERCoA3 enhances partial agonist activity of antiestrogens. CHO cells were transfected with expression vectors for ERα and reporter construct (ERE)2-TATA-CAT. The cells were cotransfected with cmv5 control expression vector or expression vector for ERCoA3, as indicated. The cells were also transfected with a β-galactosidase internal control reporter to correct for transfection efficiency. Cells were then treated for 24 h with control vehicle or increasing concentrations of estradiol (E2), trans-hydroxytamoxifen (TOT) or ICI 182,780, as indicated. Values are the means ± S.E. from three separate experiments.
The ability of ERCoA3 to affect the response that a ligand has on ER was then tested. CHO cells were transfected with a CAT reporter construct wherein transcription of the CAT gene was regulated by a estrogen-responsive element, or with both a CAT reporter construct and an expression vector for ERCoA3. The cells were grown in either estrogen, TOT or ICI, and CAT activity was assayed.

As for `C[C@]12CC[C@@H]3c4ccc(O)cc4CC[C@H]3[C@@H]1CC[C@@H]2O` [E2, 17-β-estradiol], in the assay on ERCoA3, the “ERCoA3 expression (Northern)” value is “Neither E2 nor TOT affected ERCoA3 expression”.

In the case of trans-hydroxytamoxifen [TOT], in the assay with ERCoA3, the “ERCoA3 expression (Northern)” value is listed as “Neither E2 nor TOT affected ERCoA3 expression”.

B1: ERCoA3: 79 amino acid ER coactivator protein (SEQ. ID. NO. 2); used as GST fusion or expressed from vector (protein, listed as Homo sapiens)
chain: MCGRPRRVSAGCGFADAHWTGLWTGLGEGQEGGIGPEGQASPTPDCASRWPRSASRWPWSAGLTVRDRPQLGELCMGRG
For the molecule B1, the “interaction of ERCoA3 with PRβ” value in assay [1] is “interacted with both unliganded and antiprogestin- (RU-486, a partial agonist) bound PRβ”. The PRβ transcriptional activity result in assay [2] was “enhanced the activity of both unliganded and RU-486-bound PRβ”. For the same molecule, the “activation of ER (CAT activity) in presence of TOT or ICI” value in assay [3] is “increases activation of ER”. Also, in assay [4], the “retention of [35S]-ERα on GST-ERCoA3 affinity column” value was “binds ER but binds ER better if ER are already bound to a partial agonist or antagonist”. The “CAT activity (activation of ER)” value in the assay with ERα is on record as “increased CAT activity”.
